{
  "source": "paper PMC7083938",
  "about": "“NELL2-Robo3 complex structure reveals mechanisms of receptor activation for axon guidance” (Nature Communications, 2020)",
  "assay_in_all_cases": "flow cytometry on cells; biotinylated ligand at various concentrations, 30 min at 4 °C in PBS + 0.1% BSA, on Drosophila S2 cells displaying the partner (C-terminal FLAG, rat Neurexin-1 transmembrane helix); Cy5-streptavidin; gated on anti-FLAG positive cells; MFI fit to a single-site model; apparent KD",
  "details_in_all_cases": "one partner purified",
  "key": {"[1]": {"biological_target": "T1, hRobo3 FN1-3 T604A, biotinylated (human, UniProt Q96MS0 549-870, T604A, biotin on the Avi-tag (BirA))", "T1 construct": "human Robo3, FN domains 1-3, P549-L870; source: High Five cells (baculovirus), purified, biotinylated with BirA (general methods)", "T1 sequence (looked up)": "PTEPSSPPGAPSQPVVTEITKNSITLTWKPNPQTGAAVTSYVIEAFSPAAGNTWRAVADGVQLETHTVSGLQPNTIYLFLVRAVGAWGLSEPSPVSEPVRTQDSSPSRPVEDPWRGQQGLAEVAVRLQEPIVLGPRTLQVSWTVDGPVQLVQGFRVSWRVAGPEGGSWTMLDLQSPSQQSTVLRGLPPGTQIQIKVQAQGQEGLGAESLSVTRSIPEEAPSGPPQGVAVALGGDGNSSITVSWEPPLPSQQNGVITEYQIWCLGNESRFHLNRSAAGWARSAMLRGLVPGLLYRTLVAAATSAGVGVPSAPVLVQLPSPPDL"}, "[2]": {"biological_target": "T2, hRobo3 FN1-3 W635A, biotinylated (human, UniProt Q96MS0 549-870, W635A, biotin on the Avi-tag (BirA))", "T2 construct": "human Robo3, FN domains 1-3, P549-L870; source: High Five cells (baculovirus), purified, biotinylated with BirA (general methods)", "T2 sequence (looked up)": "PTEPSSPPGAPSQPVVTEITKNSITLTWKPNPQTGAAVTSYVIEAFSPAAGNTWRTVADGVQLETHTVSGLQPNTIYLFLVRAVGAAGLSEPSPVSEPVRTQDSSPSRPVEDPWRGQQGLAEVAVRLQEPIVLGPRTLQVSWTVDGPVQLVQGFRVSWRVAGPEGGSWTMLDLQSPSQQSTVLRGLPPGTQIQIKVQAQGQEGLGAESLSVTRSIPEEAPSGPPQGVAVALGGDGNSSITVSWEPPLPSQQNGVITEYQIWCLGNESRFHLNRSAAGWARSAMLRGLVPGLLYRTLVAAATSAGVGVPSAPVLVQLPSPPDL"}, "[3]": {"biological_target": "T3, hRobo3 FN1-3 E639A, biotinylated (human, UniProt Q96MS0 549-870, E639A, biotin on the Avi-tag (BirA))", "T3 construct": "human Robo3, FN domains 1-3, P549-L870; source: High Five cells (baculovirus), purified, biotinylated with BirA (general methods)", "T3 sequence (looked up)": "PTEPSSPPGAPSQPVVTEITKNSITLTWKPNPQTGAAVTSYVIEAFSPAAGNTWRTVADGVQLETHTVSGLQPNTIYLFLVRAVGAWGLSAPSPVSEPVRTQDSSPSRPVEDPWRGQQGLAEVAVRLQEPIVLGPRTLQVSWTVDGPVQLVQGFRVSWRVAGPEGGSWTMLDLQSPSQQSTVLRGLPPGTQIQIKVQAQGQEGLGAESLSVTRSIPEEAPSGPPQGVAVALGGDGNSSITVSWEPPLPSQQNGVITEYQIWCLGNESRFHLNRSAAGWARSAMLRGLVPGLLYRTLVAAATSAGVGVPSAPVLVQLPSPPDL"}, "[4]": {"biological_target": "T4, hRobo3 FN1-3 F594A/W602A, biotinylated (human, UniProt Q96MS0 549-870, F594A | W602A, biotin on the Avi-tag (BirA))", "T4 construct": "human Robo3, FN domains 1-3, P549-L870; source: High Five cells (baculovirus), purified, biotinylated with BirA (general methods)", "T4 sequence (looked up)": "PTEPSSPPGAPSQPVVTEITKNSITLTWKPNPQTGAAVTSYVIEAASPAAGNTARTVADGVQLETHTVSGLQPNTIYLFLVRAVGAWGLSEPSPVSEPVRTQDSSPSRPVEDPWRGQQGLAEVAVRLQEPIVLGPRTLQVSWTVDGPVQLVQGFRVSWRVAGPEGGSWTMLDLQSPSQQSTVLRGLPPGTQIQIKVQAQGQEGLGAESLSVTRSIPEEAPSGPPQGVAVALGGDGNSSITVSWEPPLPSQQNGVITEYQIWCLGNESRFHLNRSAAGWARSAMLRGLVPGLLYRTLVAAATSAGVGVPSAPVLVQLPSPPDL"}, "[5]": {"biological_target": "T5, hRobo3 FN1-3, biotinylated (wild type) (human, UniProt Q96MS0 549-870, biotin on the Avi-tag (BirA))", "T5 construct": "human Robo3, FN domains 1-3, P549-L870; also called WT hRobo3 FN; Robo3FN1-3 WT; source: High Five cells (baculovirus), purified (Ni-NTA, SEC), biotinylated with BirA", "T5 sequence (looked up)": "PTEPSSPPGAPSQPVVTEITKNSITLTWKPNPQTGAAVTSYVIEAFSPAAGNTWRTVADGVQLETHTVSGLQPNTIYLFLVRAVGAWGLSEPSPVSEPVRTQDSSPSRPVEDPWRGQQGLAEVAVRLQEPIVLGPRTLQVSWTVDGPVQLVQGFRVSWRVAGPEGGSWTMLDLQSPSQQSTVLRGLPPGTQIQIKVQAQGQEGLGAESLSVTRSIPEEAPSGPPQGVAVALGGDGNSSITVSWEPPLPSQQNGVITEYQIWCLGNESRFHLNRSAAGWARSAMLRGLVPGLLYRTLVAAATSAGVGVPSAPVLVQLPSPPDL"}},
  "data": [
    {"binder": "hNELL2 EGF1-6 displayed on S2 cells (domain or fragment, human NELL2, EGF domains 1-6, G397-T637; also called NELL2EGF1-6 WT (Actin 5C, C-terminal FLAG); FLAG-tagged NELL2 EGF1-6; source: Drosophila S2 cells, transiently transfected, on the cell surface; not shown: FLAG, C-terminal, kept; transmembrane helix of rat Neurexin-1, C-terminal, kept) not shown", "values": [
      {"measurement": "Kd", "setting": "[1]", "value": 7900, "unit": "nM"},
      {"measurement": "Kd", "setting": "[2]", "value": 2900, "unit": "nM"},
      {"measurement": "Kd", "setting": "[3]", "value": 1100, "unit": "nM"},
      {"measurement": "Kd", "setting": "[4]", "value": "≥ 100000", "unit": "nM"},
      {"measurement": "Kd", "setting": "[5]", "value": 890, "unit": "nM"}
    ]}
  ]
}
